From PMC8776730 (Nature Communications, 2022)

Legend:
[1] = system: orthotopic pancreatic tumor (MIA PaCa-2); experiment: Signal in small orthotopic tumor area versus healthy spleen area; type: in vivo; settings: orthotopic pancreatic tumor mice, i.v. 16 mg/kg, 12 h
Procedure: (§1) To evaluate the imaging property of BIVA probe, the orthotopic pancreatic tumor mice model was built. After intravenous injected M1 and M2 molecules with a dose of 16 mg/kg for 12 h, the mice were sacrificed. […] Then, all the important organs were dissected for ex vivo imaging. […] Upon the individual differences, we validated 6 mice under surgery to induce orthotopic tumor in pancreatic head. […] As known, the FAP-α was a membrane located protein, overexpressed on tumor associate fibroblast cell and pancreatic cell surface.

[2] = system: orthotopic pancreatic tumor (MIA PaCa-2); experiment: Ex vivo organ biodistribution, orthotopic pancreatic tumor model; settings: orthotopic tumor mice, i.v. 16 mg/kg, 12 h
Procedure: as §1

MIA PaCa-2 cells = experiment: Cytotoxicity, CCK-8 assay; type: cell-based; settings: CCK-8, 24 h, at high concentration of 300 μM
Procedure: The cytotoxicity of M1 and M2 was evaluated using CCK-8 assay in MIA PaCa-2 cells. Cells were seeded into 96-well plates at a density of 5 × 10^4 cells per well and placed in an incubator for 14 h. Subsequently, the sample was diluted into a series of different concentrations (0, 50, 100, 150, 200, 250, 300, and 350 μM) and incubated with cells for 24 h. After that, 10 μL of CCK-8 solution was added to each well and incubated for 2 h. The absorbance of blank wells (Ab), sample wells (As) and control wells (Ac) were measured with a microplate reader at a test wavelength of 450 nm and a reference wavelength of 690 nm. The cell viability rate (%) is equal to (As -Ab) / (Ac -Ab) ×100%. All experiments were repeated in triplicate.
Supplementary Fig. 21∣ Cellviability assay of Miapaca-2 cells treated with a series concentration of M1 and M2 for 24 h.
Tested by Cell Counting Kit-8 (Beyotime, C0039) The mean of results of six parallel experiments isshown and data were
expressed as mean ± SD (n=6).
(§2) (1 picture or pasted object on this page, not shown here)

MIA PaCa-2 tumor [3] = settings: mouse, in vivo, 16 mg/kg
Procedure: In order to reduce systemic error and individual difference, we constructed the subcutaneous pancreatic cancer model in mice for quantitatively calculating of the metabolic data.
All the animal experiments were performed in accordance with the Guide for the Care and Use of Laboratory Animals approved by the Committee for Animal Research of the National Center for Nanoscience and Technology. The MIA PaCa-2 tumor-bearing mice were intravenously injected with ICG, M1 and M2 (16 mg/kg), respectively for in vivo fluorescence imaging with in vivo spectrum imaging system. Finally, mice were sacrificed to collect the major organs and tumors for ex vivo fluorescence imaging.

[4] = set-up: species or system mice; settings: mouse, in vivo, iv, 16 mg/kg
Text: The acute toxicity evaluation of M1 to mice were verified by blood biochemistry, hemograms, and histological analysis. The representative biomarkers of liver function included alanine aminotransferase (ALT), alkaline phosphatase (ALP), aspartate aminotransferase (AST), total protein (TP), and albumin concentration (ALB). […] In addition, the hematological assessment results including creatinine (CREA), white blood cells (WBC), red blood cells (RBC), hematocrit (HCT), mean corpuscular volume […], mean corpuscular hemoglobin […], mean corpuscular hemoglobin concentration (MCHC), red cell volume distribution width-coefficient of variation (RDW-CV), platelet (PLT)and mean platelet volume (MPV) were carried out (Fig. 8b). All the above indicators in PBS group and M1 group appeared normal, which was basically consistent with the normal range reported in the literature. Then the mice from PBS group and M1 group were sacrificed for the further histological section analysis of the significant organs. After Hematoxylin and Eosin (H&E) staining, the slices of heart, liver, spleen, lung, kidney, and pancreas were compared and evaluated (Fig. 8c).
Fig. 8 Acute toxicity evaluation. a Liver function indicators: alanine aminotransferase (ALT), alkaline phosphatase (ALP), aspartate aminotransferase (AST), total protein (TP) and albumin concentration (ALB). […] Staining: H&E; Injection dose of M1. (i.v. administration): 16 mg/kg; Administration time: 24 h. Scale bar 200 μm.
The female Balb/c nude mice (6–8 weeks, n = 3) were sacrificed for blood and major organs collection after treated with M1 at a dose of 16 mg/kg on the 24 h. The histology evaluation of major organs was performed by Google biotechnology (Wuhan) Co. LTD. The blood biochemistry and haematology analyses were carried out by Vital River Laboratory Animal Technology Co. Ltd.

MIA PaCa-2 tumor [5] = experiment: In vivo photoacoustic imaging; set-up: species or system mice; settings: 12 h after i.v. injection, 16 mg/kg
Procedure: The MIA PaCa-2 tumor-bearing mice were constructed for in vivo photoacoustic imaging of M1. After intravenously injected with M1 (16 mg/kg) through tail vein, the PA images of mice were acquired with MOST (mode: MOST invision 128) at 12 h post injection.
Supplementary Fig. 22∣ 3D reconstruction PA images of tumor-bearing mice injected with M1 (16 mg/kg) through tail
vein.PA images of mice were acquired with MOST (mode: MOST 128) at 12 h post injection.
as §2

mPEG-GPAKLVFFGC(IR783)GRGD [M1]
fluorescence signal on tumor relative to surrounding spleen tissue (signal-to-background) [1]: over 9 folds | signal accumulation in tumor relative to M2 [2]: twice | Average radiant efficiency, spleen ([2]; average of n = 3): 203.333 P/sec | cytotoxicity (MIA PaCa-2 cells): no obvious cytotoxicity | AUC 0-120 h in tumor tissue relative to M2 (MIA PaCa-2 tumor [3]): 3.6 times | reduction of tumor fluorescence signal between 12 h and 120 h (MIA PaCa-2 tumor [3]): 27.6% | time to peak of tumor signal (MIA PaCa-2 tumor [3]): ~12 h | retention in tumor lasted (MIA PaCa-2 tumor [3]; iv): up to 96 h | hematological assessment (CREA, WBC, RBC, HCT, MCV, MCH, MCHC, RDW-CV, PLT, MPV) [4]: normal | hepatic toxicity (ALT, ALP, AST, TP, ALB) [4]: no obvious hepatic toxicity | organ damage in H&E slices of heart, liver, spleen, lung, kidney, pancreas [4]: no noticeable organ damage and tissue injury | accumulation in tumor by photoacoustic imaging (MIA PaCa-2 tumor [5]): more accumulation in tumor than that of M2
